# Data from publication PMC2646901.
# Key:
# [1] = target: human C5a receptor (C5aR) (human) (UniProt P21730); experiment: flow cytometry on cells; kinetics: 300 nM FITC-CHIPS(28-149) added to C5aR-transfected RBL cells, dissociation started with 14 μM unlabelled CHIPS(28-149); Kd from kobs and koff, five experiments
# [2] = target: formyl peptide receptor (FPR) (UniProt P21462)
# [3] = target: human C5a receptor (C5aR) (human) (UniProt P21730)
# [4] = target: human C5a receptor (C5aR) (human) (UniProt P21730); experiment: flow cytometry on cells; competition: RBL cells transfected with human C5aR pre-treated with unlabelled CHIPS or human C5a, then 210 nM FITC-rCHIPS(28-149); cell-associated fluorescence
# [5] = target: C5a-like receptor 2 (C5L2), the second C5a receptor (UniProt Q9P296); experiment: flow cytometry on cells; inhibition of ligand binding: transfected cells co-incubated with rCHIPS(28-149) and His6-C5a (50 nM), His6-C5a des Arg (50 nM) or FITC-formyl peptide (500 nM); 30 min at 4 °C in PBS + 0.1% BSA, 0.2% NaN3; His6 ligands detected with anti-RGSHis6 and anti-mouse IgG-FITC
# [6] = target: human C5a receptor (C5aR) (human) (UniProt P21730); experiment: as above
# Chain of human C5a receptor (C5aR) (human) (P21730 whole entry): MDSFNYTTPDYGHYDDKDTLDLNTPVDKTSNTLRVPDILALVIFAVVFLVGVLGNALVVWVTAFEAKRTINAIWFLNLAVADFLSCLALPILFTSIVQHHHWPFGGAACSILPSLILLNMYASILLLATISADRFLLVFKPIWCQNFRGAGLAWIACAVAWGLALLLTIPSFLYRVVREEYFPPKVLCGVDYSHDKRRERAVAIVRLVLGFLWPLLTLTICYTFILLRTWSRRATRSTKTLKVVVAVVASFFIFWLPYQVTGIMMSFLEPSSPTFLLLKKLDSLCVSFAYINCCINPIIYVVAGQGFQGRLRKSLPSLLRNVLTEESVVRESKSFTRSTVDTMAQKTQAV
# Chain of formyl peptide receptor (FPR) (P21462 whole entry): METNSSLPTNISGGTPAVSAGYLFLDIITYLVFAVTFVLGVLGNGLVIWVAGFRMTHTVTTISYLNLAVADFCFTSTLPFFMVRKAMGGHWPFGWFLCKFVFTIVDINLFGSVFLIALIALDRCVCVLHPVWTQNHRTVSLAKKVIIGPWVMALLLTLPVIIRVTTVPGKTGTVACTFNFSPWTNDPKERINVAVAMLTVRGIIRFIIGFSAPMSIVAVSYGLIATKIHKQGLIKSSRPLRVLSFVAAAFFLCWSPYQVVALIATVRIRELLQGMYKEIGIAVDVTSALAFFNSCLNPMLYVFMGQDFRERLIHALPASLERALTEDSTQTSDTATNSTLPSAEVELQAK
# Chain of C5a-like receptor 2 (C5L2), the second C5a receptor (Q9P296 whole entry): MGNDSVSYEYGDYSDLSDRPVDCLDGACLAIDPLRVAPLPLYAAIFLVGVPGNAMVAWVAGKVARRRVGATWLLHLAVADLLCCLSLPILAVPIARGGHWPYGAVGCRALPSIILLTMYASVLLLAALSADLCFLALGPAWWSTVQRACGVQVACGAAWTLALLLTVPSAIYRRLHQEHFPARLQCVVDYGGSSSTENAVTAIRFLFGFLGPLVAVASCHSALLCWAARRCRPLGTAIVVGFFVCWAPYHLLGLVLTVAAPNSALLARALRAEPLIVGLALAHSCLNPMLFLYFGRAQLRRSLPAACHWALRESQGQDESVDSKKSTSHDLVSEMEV
substance,measurement,setting,value
FITC-labelled recombinant CHIPS_(28–149) (from UniProt A6QIG7 28-149) (domain or fragment),t1/2 of association,[1],10.2 s
same,t1/2 of dissociation,[1],43.8 s
"recombinant chemotaxis inhibitory protein of Staphylococcus aureus, residues 28-149 (rCHIPS_(28–149)) (from UniProt A6QIG7 28-149) (domain or fragment)",inhibition of formyl peptide-induced activation of FPR on RBL cells (secretion of β-hexosaminidase),[2],> 1 mM
same,inhibition of C5a-induced activation of C5aR on RBL cells (secretion of β-hexosaminidase); blocks C5a + C5aR,[3],2.44 µM
same,IC50,[4],69 nM
same,IC50,[5],274 nM
same,IC50,[6],6.7 nM
rCHIPS_(30–141) (from UniProt A6QIG7 30-141) (domain or fragment),inhibition of FPR activation by formyl peptide on RBL cells (Schild plot); potency relative to rCHIPS(28-149),[2],12 fold
